According to the RNAGym collection of RNA variant scans (doi:10.1021/acssynbio.7b00057):

B1: Pistol ribozyme (parent)
chain: GGGUCGUUGUUCCAUAAUCGCGUGGAUAUGGCACGCAAGUUUCUACCGGGCACCGUAAAUGUCCGACUGGAGCCGUUCGGGCGGCUAUAAACAGACCUCAGGCCCGAAGCGUGGCGGCACCUGCCGCCGGUGGUAAAAAAGAUCGGAAGAGCACACGUCU

Variants of: B1
Assay: aptazyme ON/OFF ratio, guanine; higher = stronger switching; co-transcriptional cleavage with and without guanine

| Variant | aptazyme ON/OFF ratio |
| --- | --- |
| U7G U8C U10A U11G C12U C13G | 1.16 |
| U7G U8C U10A U11G C12U C13U | 1.16 |
| U7G U8C U10A U11G C12U C13A | 1.22 |
| U7G U8C U10A U11A C12A | 1.05 |
| U7G U8C U10A U11A C12U | 1.43 |
| U7G U8C U10A U11A C12G | 1.13 |
| U7G U8C G9U U11A C12G | 2.17 |
| U7G U8C G9U U11A C12U | 2.56 |
| U7G U8C G9U U11A C12A | 2.91 |
| U7G U8C G9U U11C C13A | 1.38 |
| U7G U8C G9U U11C C13G | 1.04 |
| U7G U8C G9U U11C C13U | 1.3 |
| U7G U8C G9U U11G C12G | 1.34 |
| U7G U8C G9U U11G C12A | 1.44 |
| U7G U8C G9U U11G C12U | 1.55 |
| U7G U8C U10G U11G C12U C13A | 1.26 |
| U7G U8C U10G U11G C12U C13U | 1.34 |
| U7G U8C U10G U11G C12U C13G | 1.29 |
| U7G U8C G9U U11G C12U C13A | 1.26 |
| U7G U8C G9U U11G C12U C13G | 1.28 |
| U7G U8C G9U U11G C12U C13U | 1.35 |
| U7G U8C G9U U10C U11C C12G | 1.16 |
| U7G U8C G9U U10C U11C C12A | 1.42 |
| U7G U8C G9U U10C U11C C12U | 1.29 |

| Variant | aptazyme ON/OFF ratio |
| --- | --- |
| U7G U8C U10G C13U | 1.24 |
| U7G U8C U10G C13G | 1.22 |
| U7G U8C U10G C13A | 1.24 |
| U7G U8C U10A C12U | 1.31 |
| U7G U8C U10A C12A | 1.21 |
| U7G U8C U10A C12G | 1.29 |
| U7G U8C U10A U11C C12A C13U | 1.27 |
| U7G U8C U10A U11C C12A C13G | 1.23 |
| U7G U8C U10A U11C C12A C13A | 1.13 |
| U7G U8C U10C U11G C12A C13G | 1.22 |
| U7G U8C U10C U11G C12A C13U | 1.29 |
| U7G U8C U10C U11G C12A C13A | 1.16 |
| U7G U8C G9U U10G U11C C12A C13U | 1.37 |
| U7G U8C G9U U10G U11C C12A C13G | 1.45 |
| U7G U8C G9U U10G U11C C12A C13A | 1.23 |
| U7G U8C U10C U11G C13U | 1.38 |
| U7G U8C U10C U11G C13G | 1.26 |
| U7G U8C U10C U11G C13A | 1.23 |
| U7G U8C U10G C12U C13U | 1.36 |
| U7G U8C U10G C12U C13G | 1.22 |
| U7G U8C U10G C12U C13A | 1.34 |
| U7G U8C U10C U11C C13G | 1.04 |
| U7G U8C U10C U11C C13U | 1.07 |
| U7G U8C U10C U11C C13A | 1.04 |

| Variant | aptazyme ON/OFF ratio |
| --- | --- |
| U7G U8C U10A U11G C12G C13G | 1.3 |
| U7G U8C U10A U11G C12G C13A | 1.22 |
| U7G U8C U10A U11G C12G C13U | 1.25 |
| U7G U8C U10A U11C C13U | 1.04 |
| U7G U8C U10A U11C C13G | 1.04 |
| U7G U8C U10A U11C C13A | 1.05 |
| U7G U8C G9U U11C C12U C13A | 1.31 |
| U7G U8C G9U U11C C12U C13U | 1.49 |
| U7G U8C G9U U11C C12U C13G | 1.05 |
| U7G U8C G9U U10G U11C C12G C13A | 1.26 |
| U7G U8C G9U U10G U11C C12G C13U | 1.29 |
| U7G U8C G9U U10G U11C C12G C13G | 1.04 |
| U7G U8C G9U U10G U11A C12A C13A | 1.12 |
| U7G U8C G9U U10G U11A C12A C13G | 1.15 |
| U7G U8C G9U U10G U11A C12A C13U | 1.38 |
| U7G U8C U10A U11G C12G | 1.19 |
| U7G U8C U10A U11G C12A | 1.1 |
| U7G U8C U10A U11G C12U | 1.22 |
| U7G U8C U10C U11A C12G C13G | 1.21 |
| U7G U8C U10C U11A C12G C13U | 1.2 |
| U7G U8C U10C U11A C12G C13A | 1.13 |
| U7G U8C G9U U10G U11A C12A | 1.3 |
| U7G U8C G9U U10G U11A C12U | 1.1 |
| U7G U8C G9U U10G U11A C12G | 1.34 |

| Variant | aptazyme ON/OFF ratio |
| --- | --- |
| U7G U8C G9U U10C U11C C12G C13U | 1.22 |
| U7G U8C G9U U10C U11C C12G C13G | 1.29 |
| U7G U8C G9U U10C U11C C12G C13A | 1.45 |
| U7G U8C G9U U10G U11C C12U C13G | 1.22 |
| U7G U8C G9U U10G U11C C12U C13U | 1.16 |
| U7G U8C G9U U10G U11C C12U C13A | 1.34 |
| U7G U8C G9U U10G U11G C12U C13G | 1.08 |
| U7G U8C G9U U10G U11G C12U C13U | 1.44 |
| U7G U8C G9U U10G U11G C12U C13A | 1.17 |
| U7G U8C G9U U10G C12G | 1.5 |
| U7G U8C G9U U10G C12A | 1.58 |
| U7G U8C G9U U10G C12U | 1.25 |
| U7G U8C G9U U11C C12A C13A | 1.36 |
| U7G U8C G9U U11C C12A C13U | 1.23 |
| U7G U8C G9U U11C C12A C13G | 1.32 |
| U7G U8C G9U U10G C12A C13U | 1.24 |
| U7G U8C G9U U10G C12A C13A | 1.37 |
| U7G U8C G9U U10G C12A C13G | 1.11 |
| U7G U8C G9U U11A C12A C13U | 1.5 |
| U7G U8C G9U U11A C12A C13G | 1.14 |
| U7G U8C G9U U11A C12A C13A | 1.28 |
| U7G U8C U10G U11G C12G C13A | 1.18 |
| U7G U8C U10G U11G C12G C13U | 1.4 |
| U7G U8C U10G U11G C12G C13G | 1.08 |

| Variant | aptazyme ON/OFF ratio |
| --- | --- |
| U7G U8C U10G U11C C12U C13A | 1.4 |
| U7G U8C U10G U11C C12U C13U | 1.47 |
| U7G U8C U10G U11C C12U C13G | 1.23 |
| U7G U8C U10C C12A C13A | 1.19 |
| U7G U8C U10C C12A C13G | 1.16 |
| U7G U8C U10C C12A C13U | 1.24 |
| U7G U8C U10C C13U | 1.64 |
| U7G U8C U10C C13A | 1.07 |
| U7G U8C U10C C13G | 1.07 |
| U7G U8C U10A U11G C13U | 1.23 |
| U7G U8C U10A U11G C13A | 1.22 |
| U7G U8C U10A U11G C13G | 1.23 |
| U7G U8C U10C U11A C12U | 1.39 |
| U7G U8C U10C U11A C12G | 1.25 |
| U7G U8C U10C U11A C12A | 1.44 |
| U7G U8C G9U U11A C12U C13A | 1.46 |
| U7G U8C G9U U11A C12U C13G | 1.17 |
| U7G U8C G9U U11A C12U C13U | 1.41 |
| U7G U8C U10A U11A C12U C13A | 1.2 |
| U7G U8C U10A U11A C12U C13G | 1.2 |
| U7G U8C U10A U11A C12U C13U | 1.24 |
| U7G U8C G9U U10C U11G C13U | 1.38 |
| U7G U8C G9U U10C U11G C13G | 1.09 |
| U7G U8C G9U U10C U11G C13A | 1.44 |

| Variant | aptazyme ON/OFF ratio |
| --- | --- |
| U7G U8C U10A C12G C13U | 1.32 |
| U7G U8C U10A C12G C13A | 1.22 |
| U7G U8C U10A C12G C13G | 1.15 |
| U7G U8C G9U U10G | 3.44 |
| U7G U8C G9U U11C C12G C13U | 1.32 |
| U7G U8C G9U U11C C12G C13G | 1.32 |
| U7G U8C G9U U11C C12G C13A | 1.3 |
| U7G U8C G9U U10G U11G C12A C13G | 1.12 |
| U7G U8C G9U U10G U11G C12A C13A | 1.11 |
| U7G U8C G9U U10G U11G C12A C13U | 1.34 |
| U7G U8C G9U U10G C13G | 1.27 |
| U7G U8C G9U U10G C13U | 1.24 |
| U7G U8C G9U U10G C13A | 1.24 |
| U7G U8C U10C U11C C12U | 1.16 |
| U7G U8C U10C U11C C12A | 1.29 |
| U7G U8C U10C U11C C12G | 1.27 |
| U7G U8C U10A C13U | 1.12 |
| U7G U8C U10A C13A | 1.11 |
| U7G U8C U10A C13G | 1.08 |
| U7G U8C U10A U11C | 1.04 |
| U7G U8C U10A U11A | 2.71 |
| U7G U8C U10A U11G | 1.29 |
| U7G U8C G9U U10G U11A C13A | 1.08 |
| U7G U8C G9U U10G U11A C13U | 1.12 |

| Variant | aptazyme ON/OFF ratio |
| --- | --- |
| U7G U8C G9U U10G U11A C13G | 1.07 |
| U7G U8C G9U U10C U11G C12A C13A | 1.18 |
| U7G U8C G9U U10C U11G C12A C13G | 1.21 |
| U7G U8C G9U U10C U11G C12A C13U | 1.25 |
| U7G U8C G9U U10C U11G C12G C13A | 1.08 |
| U7G U8C G9U U10C U11G C12G C13U | 1.08 |
| U7G U8C G9U U10C U11G C12G C13G | 1.11 |
| U7G U8C U10G U11A | 1.21 |
| U7G U8C U10G U11G | 1.31 |
| U7G U8C U10G U11C | 2.14 |
| U7G U8C G9U U10C U11G | 1.76 |
| U7G U8C G9U U10C U11C | 1.32 |
| U7G U8C U10C C12G C13A | 1.2 |
| U7G U8C U10C C12G C13U | 1.28 |
| U7G U8C U10C C12G C13G | 1.24 |
| U7G U8C U10C U11G C12G | 1.15 |
| U7G U8C U10C U11G C12A | 1.24 |
| U7G U8C U10C U11G C12U | 1.3 |
| U7G U8C U10C U11C C12G C13A | 1.16 |
| U7G U8C U10C U11C C12G C13U | 1.14 |
| U7G U8C U10C U11C C12G C13G | 1.06 |
| U7G U8C G9U U10G U11A C12G C13G | 1.12 |
| U7G U8C G9U U10G U11A C12G C13A | 1.16 |
